Reference: patent publication US12269859B2, “Synthetic immune receptors and methods of use thereof” (Angeles Therapeutics, Inc., priority 2016, dated 2025)

Test system: target antigen-expressing cell line
Assay: Jurkat NFAT-GFP assay, coculture with target cell lines expressing the respective target antigen (summary Table 10A)
Format: cell-based, human
Parameters: key: The signs +/−, +, 2+ etc. after the name of the cell lines indicate the relative degree of positivity on the Jurkat-NFAT-GFP assay as measured by the % GFP positive cells; +: relative degree of positivity on the Jurkat-NFAT-GFP assay as measured by the % GFP positive cells; 2+: relative degree of positivity on the Jurkat-NFAT-GFP assay as measured by the % GFP positive cells
Details: relative % GFP positive cells; for NFAT-GFP ASSAY Positive Cell lines: NALM6: SIR-expressing Jurkat-NFAT-GFP cells cocultured with NALM6; for NFAT-GFP ASSAY Positive Cell lines: RAJI: SIR-expressing Jurkat-NFAT-GFP cells cocultured with RAJI
In short: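 Stable SIR expression in Jurkat-NFAT-GFP cells by lentiviral transfer and puromycin selection; coculture with target cells (E:T approximately 1:2) for 4 to 18 hours; flow cytometric measurement of NFAT-driven GFP; scoring as positive when % GFP-positive cells exceeds that of parental reporter cells.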

B1: 030817-E07 (protein)
chain: MALPVTALLLPLALLLHAARPEIVLTQSPSSLSASVGDRVTITCRASSSLSFMHWYQQKPGKAPKPWIYATSNLASGVPSRFSGSGSGTDYTLTISSLQPEDFATYFCHQWSSNPLTFGGGTKVEIKLEIQNPDPAVYQLRDSKSSDKSVCLFTDFDSQTNVSQSKDSDVYITDKCVLDMRSMDFKSNSAVAWSNKSDFACANAFNNSIIPEDTFFPSSDVPCDVKLVEKSFETDTNLNFQNLSVIGFRILLLKVAGFNLLMTLRLWSSRAKRSGSGVKQTLNFDLLKLAGDVESNPGPTSMDWIWRILFLVGAATGAHSFEQVQLVQSGAEVKKPGASVKVSCKASGYTFTSYNMHWVRQAPGQRLEWIGAIYPGNGDTSYNQKFKGRVTVTRDTSANTAYMELSSLKSEDTAVYYCARSHYGSNYVDYFDYWGQGTLVTVSSTREDLKNVFPPEVAVFEPSKAEIAHTQKATLVCLATGFYPDHVELSWWVNGKEVHSGVCTDPQPLKEQPALNDSRYCLSSRLRVSATFWQNPRNHFRCQVQFYGLSENDEWTQDRAKPVTQIVSAEAWGRADCGITSASYHQGVLSATILYEILLGKATLYAVLVSALVLMAMVKRKDSRGRAKRSGSGATNFSLLKQAGDVEENPGPSRGHMTEYKPTVRLATRDDVPRAVRTLAAAFADYPATRHTVDPDRHIERVTELQELFLTRVGLDIGKVWVADDGAAVAVWTTPESVEAGAVFAEIGPRMAELSGSRLAAQQQMEGLLAPHRPKEPAWFLATVGVSPDHQGKGLGSAVVLPGVEAAERAGVPAFLETSAPRNLPFYERLGFTVTADVEVPEGPRTWCMTRKPGA
For B1, the “NFAT-GFP ASSAY Positive Cell lines: U266” value (SIR-expressing Jurkat-NFAT-GFP cells cocultured with U266) was “U266 (+/−)”.

B2: 030917-Z01 (protein)
chain: MALPVTALLLPLALLLHAARPEIVLTQSPGTLSLSPGERATLSCRASSSVPYIHWYQQKPGQAPRLLIYATSALASGIPDRFSGSGSGTDFTLTISRLEPEDFAVYYCQQWLSNPPTFGQGTKLELKRLEDLKNVFPPEVAVFEPSKAEIAHTQKATLVCLATGFYPDHVELSWWVNGKEVHSGVCTDPQPLKEQPALNDSRYCLSSRLRVSATFWQNPRNHFRCQVQFYGLSENDEWTQDRAKPVTQIVSAEAWGRADCGITSASYHQGVLSATILYEILLGKATLYAVLVSALVLMAMVKRKDSRGRAKRSGSGATNFSLLKQAGDVEENPGPTSMDWIWRILFLVGAATGAHSFEEVQLVQSGAEVKKPGESLKLSCKGSGRTFTSYNMHWVRQMPGKGLEWMGAIYPLTGDTSYNQKSKLQVTISADKSISTAYLQWSSLKASDTAMYYCARSTYVGGDWQFDVWGKGTTVTVSSTRIQNPDPAVYQLRDSKSSDKSVCLFTDFDSQTNVSQSKDSDVYITDKCVLDMRSMDFKSNSAVAWSNKSDFACANAFNNSIIPEDTFFPSSDVPCDVKLVEKSFETDTNLNFQNLSVIGFRILLLKVAGFNLLMTLRLWSSRAKRSGSGVKQTLNFDLLKLAGDVESNPGPSRGHMTEYKPTVRLATRDDVPRAVRTLAAAFADYPATRHTVDPDRHIERVTELQELFLTRVGLDIGKVWVADDGAAVAVWTTPESVEAGAVFAEIGPRMAELSGSRLAAQQQMEGLLAPHRPKEPAWFLATVGVSPDHQGKGLGSAVVLPGVEAAERAGVPAFLETSAPRNLPFYERLGFTVTADVEVPEGPRTWCMTRKPGA
With B2 the “NFAT-GFP ASSAY Positive Cell lines: NALM6” value was “(+/−)” and the “NFAT-GFP ASSAY Positive Cell lines: RAJI” value was “RAJI (2+), NALM6”.

B3: 041417-B06 (protein)
chain: MALPVTALLLPLALLLHAARPEVQLQQSGPGLVKPSQTLSLTCAISGDSVLSNSDTWNWIRQSPSRGLEWLGRTYHRSTWYDDYASSVRGRVSINVDTSKNQYSLQLNAVTPEDTGVYYCARDRLQDGNSWSDAFDVWGQGTMVTVSSLEIQNPDPAVYQLRDSKSSDKSVCLFTDFDSQTNVSQSKDSDVYITDKCVLDMRSMDFKSNSAVAWSNKSDFACANAFNNSIIPEDTFFPSSDVPCDVKLVEKSFETDTNLNFQNLSVIGFRILLLKVAGFNLLMTLRLWSSRAKRSGSGVKQTLNFDLLKLAGDVESNPGPTSMDWIWRILFLVGAATGAHSFEQSALTQPASVSGSPGQSITISCTGTSSDVGGYNYVSWYQQHPGKAPKLMIYDVSNRPSGVSNRFSGSKSGNTASLTISGLQAEDEADYYCSSYTSSSTLVYVFGTGTKVTVLTREDLKNVFPPEVAVFEPSKAEIAHTQKATLVCLATGFYPDHVELSWWVNGKEVHSGVCTDPQPLKEQPALNDSRYCLSSRLRVSATFWQNPRNHFRCQVQFYGLSENDEWTQDRAKPVTQIVSAEAWGRADCGITSASYHQGVLSATILYEILLGKATLYAVLVSALVLMAMVKRKDSRGRAKRSGSGATNFSLLKQAGDVEENPGPSRGHMTEYKPTVRLATRDDVPRAVRTLAAAFADYPATRHTVDPDRHIERVTELQELFLTRVGLDIGKVWVADDGAAVAVWTTPESVEAGAVFAEIGPRMAELSGSRLAAQQQMEGLLAPHRPKEPAWFLATVGVSPDHQGKGLGSAVVLPGVEAAERAGVPAFLETSAPRNLPFYERLGFTVTADVEVPEGPRTWCMTRKPGA
B3 was tested, and the “NFAT-GFP ASSAY Positive Cell lines: RAJI” value was “RAJI (+/−)”.

B4: 031417-N06 (protein)
chain: MALPVTALLLPLALLLHAARPQIVLSQSPAILSASPGEKVTMTCRASSSVSYMHWYQQKPGSSPKPWIYATSNLASGVPARFSGSGSGTSYSFTISRVEAEDAATYYCQQWTFNPPTFGGGTRLEIKRTVAALEIQNPDPAVYQLRDSKSSDKSVCLFTDFDSQTNVSQSKDSDVYITDKCVLDMRSMDFKSNSAVAWSNKSDFACANAFNNSIIPEDTFFPSSDVPCDVKLVEKSFETDTNLNFQNLSVIGFRILLLKVAGFNLLMTLRLWSSRAKRSGSGVKQTLNFDLLKLAGDVESNPGPTSMDWIWRILFLVGAATGAHSFEQAYLQQSGAELVRPGASVKMSCKASGYTFTSYNMHWVKQTPRQGLEWIGGIYPGNGDTSYNQKFKGKATLTVGKSSSTAYMQLSSLTSEDSAVYFCARYDYNYAMDYWGQGTSVTVSSASTREDLKNVFPPEVAVFEPSKAEIAHTQKATLVCLATGFYPDHVELSWWVNGKEVHSGVCTDPQPLKEQPALNDSRYCLSSRLRVSATFWQNPRNHFRCQVQFYGLSENDEWTQDRAKPVTQIVSAEAWGRADCGITSASYHQGVLSATILYEILLGKATLYAVLVSALVLMAMVKRKDSRGRAKRSGSGATNFSLLKQAGDVEENPGPSRGHMTEYKPTVRLATRDDVPRAVRTLAAAFADYPATRHTVDPDRHIERVTELQELFLTRVGLDIGKVWVADDGAAVAVWTTPESVEAGAVFAEIGPRMAELSGSRLAAQQQMEGLLAPHRPKEPAWFLATVGVSPDHQGKGLGSAVVLPGVEAAERAGVPAFLETSAPRNLPFYERLGFTVTADVEVPEGPRTWCMTRKPGA
In the case of B4, the “NFAT-GFP ASSAY Positive Cell lines: NALM6” value is reported as “(+)”.

B5: 031417-L06 (protein)
chain: MALPVTALLLPLALLLHAARPQIVLSQSPAILSASPGEKVTMTCRASSSVSYMHWYQQKPGSSPKPWIYATSNLASGVPARFSGSGSGTSYSFTISRVEAEDAATYYCQQWTFNPPTFGGGTRLEIKRTVAALEDLKNVFPPEVAVFEPSKAEIAHTQKATLVCLATGFYPDHVELSWWVNGKEVHSGVCTDPQPLKEQPALNDSRYCLSSRLRVSATFWQNPRNHFRCQVQFYGLSENDEWTQDRAKPVTQIVSAEAWGRADCGITSASYHQGVLSATILYEILLGKATLYAVLVSALVLMAMVKRKDSRGRAKRSGSGATNFSLLKQAGDVEENPGPTSMDWIWRILFLVGAATGAHSFEQAYLQQSGAELVRPGASVKMSCKASGYTFTSYNMHWVKQTPRQGLEWIGGIYPGNGDTSYNQKFKGKATLTVGKSSSTAYMQLSSLTSEDSAVYFCARYDYNYAMDYWGQGTSVTVSSASTRIQNPDPAVYQLRDSKSSDKSVCLFTDFDSQTNVSQSKDSDVYITDKCVLDMRSMDFKSNSAVAWSNKSDFACANAFNNSIIPEDTFFPSSDVPCDVKLVEKSFETDTNLNFQNLSVIGFRILLLKVAGFNLLMTLRLWSSRAKRSGSGVKQTLNFDLLKLAGDVESNPGPSRGHMTEYKPTVRLATRDDVPRAVRTLAAAFADYPATRHTVDPDRHIERVTELQELFLTRVGLDIGKVWVADDGAAVAVWTTPESVEAGAVFAEIGPRMAELSGSRLAAQQQMEGLLAPHRPKEPAWFLATVGVSPDHQGKGLGSAVVLPGVEAAERAGVPAFLETSAPRNLPFYERLGFTVTADVEVPEGPRTWCMTRKPGA
B5 was tested, and the “NFAT-GFP ASSAY Positive Cell lines: RAJI” value was “RAJI (+/−)”.

B6: 031517-W03 (protein)
chain: MALPVTALLLPLALLLHAARPLEGKPIPNPLLGLDSTGSGEDLKNVFPPEVAVFEPSKAEIAHTQKATLVCLATGFYPDHVELSWWVNGKEVHSGVCTDPQPLKEQPALNDSRYCLSSRLRVSATFWQNPRNHFRCQVQFYGLSENDEWTQDRAKPVTQIVSAEAWGRADCGITSASYHQGVLSATILYEILLGKATLYAVLVSALVLMAMVKRKDSRGRAKRSGSGATNFSLLKQAGDVEENPGPTSMALPVTALLLPLALLLHAARPEIVLTQSPSSLSASVGDRVTITCRASSSLSFMHWYQQKPGKAPKPWIYATSNLASGVPSRFSGSGSGTDYTLTISSLQPEDFATYFCHQWSSNPLTFGGGTKVEIKGGGGSGGGGSGGGGSQVQLVQSGAEVKKPGASVKVSCKASGYTFTSYNMHWVRQAPGQRLEWIGAIYPGNGDTSYNQKFKGRVTVTRDTSANTAYMELSSLKSEDTAVYYCARSHYGSNYVDYFDYWGQGTLVTVSSTREQKLISEEDGSGIQNPDPAVYQLRDSKSSDKSVCLFTDFDSQTNVSQSKDSDVYITDKCVLDMRSMDFKSNSAVAWSNKSDFACANAFNNSIIPEDTFFPSSDVPCDVKLVEKSFETDTNLNFQNLSVIGFRILLLKVAGFNLLMTLRLWSSRAKRSGSGVKQTLNFDLLKLAGDVESNPGPSRGHMTEYKPTVRLATRDDVPRAVRTLAAAFADYPATRHTVDPDRHIERVTELQELFLTRVGLDIGKVWVADDGAAVAVWTTPESVEAGAVFAEIGPRMAELSGSRLAAQQQMEGLLAPHRPKEPAWFLATVGVSPDHQGKGLGSAVVLPGVEAAERAGVPAFLETSAPRNLPFYERLGFTVTADVEVPEGPRTWCMTRKPGA
B6 was tested, and the “NFAT-GFP ASSAY Positive Cell lines: RAJI” value was “RAJI (+/−)”.
